pKd: −log10 of the molar value.
What follows are substances tested against EEEV E2 domain B (Eastern equine encephalitis virus) (assay: BLI).

Q: How did the pKd turn out when VLDLR LA1-8-Fc (Fc fusion) was run?
A: 5.85

What follows are substances tested against EEEV PE6 virus-like particle (VLP) (Eastern equine encephalitis virus, strain PE6) (assay: BLI).

Q: How did the pKd turn out when VLDLR LA1-3-Fc (Fc fusion) was run?
A: 6.44

Q: VLDLR LA3-6-Fc (Fc fusion) was tested. Which pKd did it give?
A: 7.15

Q: How did the pKd turn out when S. vulgaris VLDLR LA1-8-Fc (Fc fusion) was run?
A: 7.96

Q: With VLDLR LA1-2-Fc (Fc fusion) as the substance, how does the pKd read?
A: 6.30

Q: With VLDLR LA1-8-Fc (Fc fusion) as the substance, how does the pKd read?
A: 8.54

Q: How did the pKd turn out when VLDLR LA4-5-Fc (Fc fusion) was run?
A: 4.92

Q: VLDLR LA4-6-Fc (Fc fusion) was tested. Which pKd did it give?
A: 5.64

Q: How did the pKd turn out when VLDLR LA2-4-Fc (Fc fusion) was run?
A: 5.96

Q: How did the pKd turn out when VLDLR LA5-6-Fc (Fc fusion) was run?
A: 5.38

Q: How did the pKd turn out when VLDLR LA3-5-Fc (Fc fusion) was run?
A: 7.49

Q: With VLDLR LA2-5-Fc (Fc fusion) as the substance, how does the pKd read?
A: 7.37

Q: With VLDLR LA2-3-Fc (Fc fusion) as the substance, how does the pKd read?
A: 5.74

Q: With VLDLR LA3-4-Fc (Fc fusion) as the substance, how does the pKd read?
A: 5.41
